From patent publication USRE46585 (LABORATOIRE FRANCAIS DU FRACTIONNEMENT ET DES …, dated 2017)
Residue numbers refer to the chain shown, from its start. Values belong to the binder of their own block, whether it stands above or below them.

Tests used:
FcRn-p3 fusion protein [1] = target: T1, FcRn-p3 fusion protein (human, UniProt P55899 24-297; P61769 21-119); test: phage ELISA pH6
T1 construct: baculovirus expressed; coated on ELISA wells; not shown: amino terminal part of bacteriophage p3 protein and CVDE protein

FcRn-p3 fusion protein [2] = target: T1, FcRn-p3 fusion protein; test: phage ELISA pH6 (est.)

- Ratio/Fc-H (FcRn-p3 fusion protein [1]): 1.8 fold
- Ratio/FWT (FcRn-p3 fusion protein [2]): 5.7 fold
B2: C7A_22 (other)
chain: CPPCPAPELLGGPSVFLFPPKPKDTLMISRTPEVTCVVVDVSHEDPEVKFNWYVDGVEVHNAKTKPREEQYNSTYRVVSVLTVLHQDWLDGKEYKCKVSNKALPAPIEETISKAKGQPREPQVYTLPPSRDELTKNQVSLTCLVKGFYPSDIVVEWESNGQPENNYKTTPPVLDSDGSFFLYSKLTVDKSRWQQGNVFSCSVMHEALHYHYTQKSLSLSPGK
notes: EU numbering

- Ratio/Fc-H (FcRn-p3 fusion protein [1]): 3.4 fold
- Ratio/FWT (FcRn-p3 fusion protein [2]): 10.9 fold
B4: C6A_36 (other)
chain: B2 chain with T82P, E109K, V153A, E157G, Q194H
notes: EU numbering

- Ratio/Fc-H (FcRn-p3 fusion protein [1]): 2.3 fold
- Ratio/FWT (FcRn-p3 fusion protein [2]): 7.4 fold
B5: C7A_13 (other)
chain: B2 chain with F16L, V39E, D90N, E109K, N196T
notes: EU numbering

- Ratio/Fc-H (FcRn-p3 fusion protein [1]): 2.7 fold
- Ratio/FWT (FcRn-p3 fusion protein [2]): 8.8 fold
B7: C8A_41 (other)
chain: B2 chain with E109K, V153A, E157V, H208P
notes: EU numbering

- Ratio/Fc-H (FcRn-p3 fusion protein [1]): 2.2 fold
- Ratio/FWT (FcRn-p3 fusion protein [2]): 6.9 fold
B9: C7A_37 (other)
chain: B2 chain with F16L, E109K, V153A, N164K
notes: EU numbering

- Ratio/Fc-H (FcRn-p3 fusion protein [1]): 1.9 fold
- Ratio/FWT (FcRn-p3 fusion protein [2]): 6.2 fold
B11: C6A_05 (other)
chain: B2 chain with T82A, A105V, E109K, V153A
notes: EU numbering

- Ratio/Fc-H (FcRn-p3 fusion protein [1]): 1.7 fold
- Ratio/FWT (FcRn-p3 fusion protein [2]): 5.5 fold
B14: C8A_61 (other)
chain: B2 chain with P5T, V39E, D90N, E109K, V153A, P171L
notes: EU numbering

- Ratio/Fc-H (FcRn-p3 fusion protein [1]): 2.8 fold
- Ratio/FWT (FcRn-p3 fusion protein [2]): 8.9 fold
B16: C7A_18 (other)
chain: B2 chain with V39E, D90N, E109K, K189R, N196T
notes: EU numbering

- Ratio/Fc-H (FcRn-p3 fusion protein [1]): 2.3 fold
- Ratio/FWT (FcRn-p3 fusion protein [2]): 7.4 fold
B19: C7A_89 (other)
chain: B2 chain with T82P, D90N, A102T, E109K, V153A, N164T, N196T
notes: EU numbering

- Ratio/Fc-H (FcRn-p3 fusion protein [1]): 2.6 fold
- Ratio/FWT (FcRn-p3 fusion protein [2]): 8.2 fold
B20: C7A_27 (other)
chain: B2 chain with V39E, T82N, D90N, E109K, V172M
notes: EU numbering

- Ratio/Fc-H (FcRn-p3 fusion protein [1]): 2.8 fold
- Ratio/FWT (FcRn-p3 fusion protein [2]): 8.9 fold
B21: C5A_75 (other)
chain: B2 chain with T82N, E109K, V153A
notes: EU numbering

- Ratio/Fc-H (FcRn-p3 fusion protein [1]): 2 fold
- Ratio/FWT (FcRn-p3 fusion protein [2]): 6.4 fold
B22: C8A_08 (other)
chain: B2 chain with V39A, A105V, E109K, V153A
notes: EU numbering

- Ratio/Fc-H (FcRn-p3 fusion protein [1]): 1.7 fold
- Ratio/FWT (FcRn-p3 fusion protein [2]): 5.3 fold
B25: C7A_49 (other)
chain: B2 chain with A105V, E109K, V153A, T169A
notes: EU numbering

- Ratio/Fc-H (FcRn-p3 fusion protein [1]): 2.2 fold
- Ratio/FWT (FcRn-p3 fusion protein [2]): 6.9 fold
B28: C7A_02 (other)
chain: B2 chain with V39E, D90N, E109K, K145R
notes: EU numbering

- Ratio/Fc-H (FcRn-p3 fusion protein [1]): 2.4 fold
- Ratio/FWT (FcRn-p3 fusion protein [2]): 7.6 fold
B33: C8A_14 (other)
chain: B2 chain with V80A, D90N, E109K, V153A, Q161R
notes: EU numbering

- Ratio/Fc-H (FcRn-p3 fusion protein [1]): 2.9 fold
- Ratio/FWT (FcRn-p3 fusion protein [2]): 9.4 fold
B41: C6A_04 (other)
chain: B2 chain with D90N, E109K, Q117R, V153A, E157V
notes: EU numbering

- Ratio/Fc-H (FcRn-p3 fusion protein [1]): 1.8 fold
- Ratio/FWT (FcRn-p3 fusion protein [2]): 5.7 fold
B44: C6A_35 (other)
chain: B2 chain with T25A, A105V, E109K, V153A
notes: EU numbering

- Ratio/Fc-H (FcRn-p3 fusion protein [1]): 3.6 fold
- Ratio/FWT (FcRn-p3 fusion protein [2]): 11.5 fold
B47: C7A_43 (other)
chain: B2 chain with V39E, T82P, D90N, E109K, P171S, Y209S
notes: EU numbering

- Ratio/Fc-H (FcRn-p3 fusion protein [1]): 3.4 fold
- Ratio/FWT (FcRn-p3 fusion protein [2]): 10.9 fold
B50: C7A_68 (other)
chain: B2 chain with V39E, E109K, N165S, G195R
notes: EU numbering

Further lines, the binder ahead of its results:

B1: C4A_41 (other)
chain: B2 chain with A105V, E109K, Q137E, V153A
notes: EU numbering
- Ratio/Fc-H (FcRn-p3 fusion protein [1]): 3.4 fold
- Ratio/FWT (FcRn-p3 fusion protein [2]): 10.8 fold

B3: T3A_01 (other)
chain: B2 chain with V39E, T82P, D90N, E109K, N196T, Y209N
notes: EU numbering
- Ratio/Fc-H (FcRn-p3 fusion protein [1]): 2.4 fold
- Ratio/FWT (FcRn-p3 fusion protein [2]): 7.8 fold

B6: T3A_08 (other)
chain: B2 chain with V39E, D90N, E109K, F179L, Y209N
notes: EU numbering
- Ratio/Fc-H (FcRn-p3 fusion protein [1]): 1.1 fold
- Ratio/FWT (FcRn-p3 fusion protein [2]): 3.5 fold

B8: T3A_10 (other)
chain: B2 chain with A105V, E109K, V153A, N164K
notes: EU numbering
- Ratio/Fc-H (FcRn-p3 fusion protein [1]): 2.4 fold
- Ratio/FWT (FcRn-p3 fusion protein [2]): 7.8 fold

B10: T3A_13 (other)
chain: B2 chain with E109K, V144A, V153A
notes: EU numbering
- Ratio/Fc-H (FcRn-p3 fusion protein [1]): 1.8 fold
- Ratio/FWT (FcRn-p3 fusion protein [2]): 5.6 fold

B12: C5A_41 (other)
chain: B2 chain with A102T, A105V, E109K, Q137R, V153A
notes: EU numbering
- Ratio/Fc-H (FcRn-p3 fusion protein [1]): 1.3 fold
- Ratio/FWT (FcRn-p3 fusion protein [2]): 4.3 fold

B13: C5A_15 (other)
chain: B2 chain with V78A, A105V, E109K, V153A, E157V
notes: EU numbering
- Ratio/Fc-H (FcRn-p3 fusion protein [1]): 3.4 fold
- Ratio/FWT (FcRn-p3 fusion protein [2]): 10.9 fold

B15: M3A_06 (other)
chain: B2 chain with F16L, V39E, D90N, E109K, V153T, V172M, Y209N
notes: EU numbering
- Ratio/Fc-H (FcRn-p3 fusion protein [1]): 1.8 fold
- Ratio/FWT (FcRn-p3 fusion protein [2]): 5.7 fold

B17: C5A_12 (other)
chain: B2 chain with E109K, Q137E, V153A, N164K
notes: EU numbering
- Ratio/Fc-H (FcRn-p3 fusion protein [1]): 3.8 fold
- Ratio/FWT (FcRn-p3 fusion protein [2]): 12.1 fold

B18: C5A_19 (other)
chain: B2 chain with V39A, V80A, A105V, E109K, V153A
notes: EU numbering
- Ratio/Fc-H (FcRn-p3 fusion protein [1]): 2.9 fold
- Ratio/FWT (FcRn-p3 fusion protein [2]): 9.3 fold

B23: T3A_11 (other)
chain: B2 chain with P66S, A102V, A105V, E109K, V153A
notes: EU numbering
- Ratio/Fc-H (FcRn-p3 fusion protein [1]): 1.3 fold
- Ratio/FWT (FcRn-p3 fusion protein [2]): 4 fold

B24: C5A_58 (other)
chain: B2 chain with V39E, D90N, E109K, P171L, Y209S
notes: EU numbering
- Ratio/Fc-H (FcRn-p3 fusion protein [1]): 2.8 fold
- Ratio/FWT (FcRn-p3 fusion protein [2]): 9.1 fold

B26: C5A_44 (other)
chain: B2 chain with E109K, V153A, N164K
notes: EU numbering
- Ratio/Fc-H (FcRn-p3 fusion protein [1]): 2.7 fold
- Ratio/FWT (FcRn-p3 fusion protein [2]): 8.7 fold

B27: M3A_08 (other)
chain: B2 chain with V39E, T82P, D90N, E109K, V153T, V172M, Y209N
notes: EU numbering
- Ratio/Fc-H (FcRn-p3 fusion protein [1]): 1.7 fold
- Ratio/FWT (FcRn-p3 fusion protein [2]): 5.6 fold

B29: C5A_03 (other)
chain: B2 chain with V39A, E109K, V153A
notes: EU numbering
- Ratio/Fc-H (FcRn-p3 fusion protein [1]): 2.7 fold
- Ratio/FWT (FcRn-p3 fusion protein [2]): 8.7 fold

B30: T3A_34 (other)
chain: B2 chain with V39E, D90N, E109K, P127S, Y209N
notes: EU numbering
- Ratio/Fc-H (FcRn-p3 fusion protein [1]): 1.4 fold
- Ratio/FWT (FcRn-p3 fusion protein [2]): 4.6 fold

B31: C5A_63 (other)
chain: B2 chain with S73N, A105V, E109K, V153A
notes: EU numbering
- Ratio/Fc-H (FcRn-p3 fusion protein [1]): 2 fold
- Ratio/FWT (FcRn-p3 fusion protein [2]): 6.3 fold

B32: T3A_15 (other)
chain: B2 chain with V39E, D90N, E109K, T169A, F179L, Y209S
notes: EU numbering
- Ratio/Fc-H (FcRn-p3 fusion protein [1]): 2.8 fold
- Ratio/FWT (FcRn-p3 fusion protein [2]): 8.9 fold

B34: T3A_22 (other)
chain: B2 chain with F16L, V39E, D90N, E109K, Y209S
notes: EU numbering
- Ratio/Fc-H (FcRn-p3 fusion protein [1]): 3.8 fold
- Ratio/FWT (FcRn-p3 fusion protein [2]): 12.2 fold

B35: T3A_16 (other)
chain: B2 chain with F16L, V39E, T82P, D90N, E109K, Y209N
notes: EU numbering
- Ratio/Fc-H (FcRn-p3 fusion protein [1]): 2.3 fold
- Ratio/FWT (FcRn-p3 fusion protein [2]): 7.4 fold

B36: M3A_34 (other)
chain: B2 chain with S42N, T82N, D90N, E109K, K145R, Y209N
notes: EU numbering
- Ratio/Fc-H (FcRn-p3 fusion protein [1]): 1.3 fold
- Ratio/FWT (FcRn-p3 fusion protein [2]): 4.3 fold

B37: M3A_26 (other)
chain: B2 chain with V39E, T82P, D90N, E109K, K115E, Q117R, Y209N
notes: EU numbering
- Ratio/Fc-H (FcRn-p3 fusion protein [1]): 1.8 fold
- Ratio/FWT (FcRn-p3 fusion protein [2]): 5.6 fold

B38: C4A_45 (other)
chain: B2 chain with K21R, H60Y, A105V, E109K, V153A
notes: EU numbering
- Ratio/Fc-H (FcRn-p3 fusion protein [1]): 2.3 fold
- Ratio/FWT (FcRn-p3 fusion protein [2]): 7.2 fold

B39: C5A_50 (other)
chain: B2 chain with D45N, E109K, V153A
notes: EU numbering
- Ratio/Fc-H (FcRn-p3 fusion protein [1]): 2.3 fold
- Ratio/FWT (FcRn-p3 fusion protein [2]): 7.3 fold

B40: M3A_21 (other)
chain: B2 chain with F16L, V39E, T82P, D90N, E109K, N196T, Y209N
notes: EU numbering
- Ratio/Fc-H (FcRn-p3 fusion protein [1]): 2.6 fold
- Ratio/FWT (FcRn-p3 fusion protein [2]): 8.4 fold

B42: M3A_18 (other)
chain: B2 chain with T82P, D90N, E109K, N196T, Y209N
notes: EU numbering
- Ratio/Fc-H (FcRn-p3 fusion protein [1]): 1.9 fold
- Ratio/FWT (FcRn-p3 fusion protein [2]): 6.2 fold

B43: M3B_04 (other)
chain: B2 chain with F16L, V39E, D90N, E109K, Q117R, Y209N
notes: EU numbering
- Ratio/Fc-H (FcRn-p3 fusion protein [1]): 1.7 fold
- Ratio/FWT (FcRn-p3 fusion protein [2]): 5.5 fold

B45: T3A_30 (other)
chain: B2 chain with V39E, D90N, E109K, V197A, Y209N
notes: EU numbering
- Ratio/Fc-H (FcRn-p3 fusion protein [1]): 1.1 fold
- Ratio/FWT (FcRn-p3 fusion protein [2]): 3.4 fold

B46: M3A_12 (other)
chain: B2 chain with E109K, Q137R, V153A, N196D, Y209S
notes: EU numbering
- Ratio/Fc-H (FcRn-p3 fusion protein [1]): 1.1 fold
- Ratio/FWT (FcRn-p3 fusion protein [2]): 3.4 fold

B48: M3A_35 (other)
chain: B2 chain with V39E, E109K, V153A, P171L, Y209N
notes: EU numbering
- Ratio/Fc-H (FcRn-p3 fusion protein [1]): 1.1 fold
- Ratio/FWT (FcRn-p3 fusion protein [2]): 3.7 fold

B49: C5A_20 (other)
chain: B2 chain with E109K, V153A, S190D
notes: EU numbering
- Ratio/Fc-H (FcRn-p3 fusion protein [1]): 2.6 fold
- Ratio/FWT (FcRn-p3 fusion protein [2]): 8.4 fold

B51: M3B_23 (other)
chain: B2 chain with F16L, V39E, T82P, D90N, E109K, V153A, Y209N
notes: EU numbering
- Ratio/Fc-H (FcRn-p3 fusion protein [1]): 1.2 fold
- Ratio/FWT (FcRn-p3 fusion protein [2]): 3.8 fold
